Reference: US20240058447A1 (INSTIL BIO UK, published 2024)

Key:
[1] = biological target: membrane-bound FRα on target cells (UniProt P15328); assay: cell-based or functional assay
[2] = biological target: CD3 of the TCR/CD3 complex on T cells (human) (UniProt P07766); assay: cell-based or functional assay
[3] = biological target: T1, human histidine-tagged FRα (human, UniProt P15328 25-234); assay: surface plasmon resonance (printed 'Surface plasma resonance'); orientation not stated; FIG. 54 names human histidine-tagged FRα
T1 construct: also called folate receptor α; FOLR1; not shown: histidine tag
T1 sequence (P15328 25-234 limits assumed): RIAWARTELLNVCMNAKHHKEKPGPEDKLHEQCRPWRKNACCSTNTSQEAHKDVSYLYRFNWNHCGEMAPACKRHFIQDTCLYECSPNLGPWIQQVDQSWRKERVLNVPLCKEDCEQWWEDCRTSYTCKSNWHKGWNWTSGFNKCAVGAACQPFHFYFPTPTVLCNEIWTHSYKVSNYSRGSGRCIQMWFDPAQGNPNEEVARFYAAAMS

Sequence of membrane-bound FRα on target cells (P15328 25-234 limits assumed): as above
Sequence of CD3 of the TCR/CD3 complex on T cells (human) (P07766 23-207, one chain of several): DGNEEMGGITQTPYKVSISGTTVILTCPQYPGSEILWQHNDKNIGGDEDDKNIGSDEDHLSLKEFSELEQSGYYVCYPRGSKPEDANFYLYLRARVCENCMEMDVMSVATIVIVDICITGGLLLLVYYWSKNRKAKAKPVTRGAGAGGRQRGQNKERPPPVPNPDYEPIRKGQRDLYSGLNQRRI

## anti-FRα CoStAR (MOV19 scFv - CD28 - CD40 costimulatory antigen receptor) on T cells or TILs
[1]
  IFNγ production of lung TIL against Ba/F3.OKT3.FRα, CoStAR-Td versus non-Td: 4 fold
  IFNγ production of lung TIL against autologous tumor digest, E:T 1:1, CoStAR-Td versus non-Td: 6.4 fold
  IFNγ production of ovarian TIL against Ba/F3.OKT3.FRα, CoStAR-Td versus non-Td: 4.2 fold
  IFNγ production of ovarian TIL against autologous tumor digest, E:T 1:1, CoStAR-Td versus non-Td: 4.3 fold
  IFNγ production of renal TIL against Ba/F3.OKT3.FRα, CoStAR-Td versus non-Td: 3.1 fold
  IFNγ production of renal TIL against autologous tumor digest, E:T 1:1, CoStAR-Td versus non-Td: 2.4 fold
  IL-2 production of lung TIL against Ba/F3.OKT3.FRα, CoStAR-Td versus non-Td: 18.3 fold
  IL-2 production of ovarian TIL against Ba/F3.OKT3.FRα, CoStAR-Td versus non-Td: 19.9 fold
  IL-2 production of renal TIL against Ba/F3.OKT3.FRα, CoStAR-Td versus non-Td: 15 fold
  fold expansion after a single stimulation with Ba/F3.OKT3.FRα, no exogenous IL-2, day 7: 6.7 fold
  fold expansion after repeated stimulation with Ba/F3.OKT3.FRα (days 0, 7, 14, 21), no exogenous IL-2, day 35: 829 fold
  fold expansion of T cells cocultured with Ba/F3.OKT3.FRα, E:T 8:1, 200 IU/mL IL-2, day 35: 198 fold
  xCELLigence cytotoxicity against H508.Luc.Puro.FRα, AUC of normalized cell index over 48 h, E:T 10:1, donor 37636 TCR.CoStAR-Td T cells: 91.2 AUC

## membrane-anchored OKT3 on target cells (scFv)
[2]
  cytotoxicity against Ba/F3.OKT3 at E:T 1:5 after 5 days, CoStAR transduced T cells: 82%
  cytotoxicity against Ba/F3.OKT3 at E:T 1:5 after 5 days, non-transduced T cells: 74%

B1: MOV19 monoclonal antibody (antibody, V domains shown)
VH: QVQLQQSGAELVKPGASVKISCKASGYSFTGYFMNWVKQSHGKSLEWIGRIHPYDGDTFYNQNFKDKATLTVDKSSNTAHMELLSLTSEDFAVYYCTRYDGSRAMDYWGQGTTVTVSS
VL: DIELTQSPASLAVSLGQRAIISCKASQSVSFAGTSLMHWYHQKPGQQPKLLIYRASNLEAGVPTRFSGSGSKTDFTLNIHPVEEEDAATYYCQQSREYPYTFGGGTKLEIK
notes: also called MOV19 antibody; MOV19 anti-FRα antibody
[3]
  Kd: ~460 pM
